Values belong to the substance of their own block, whether it stands above or below them.
Key:
[1] = molecular target: mouse DNGR-1 on B3Z-mDNGR-1-Syk reporter cells (mouse) (UniProt Q8BRU4)
[2] = molecular target: DNGR-1 on cDC1s (mouse (endogenous in MutuDC1940 cells and splenic cDC1s)) (UniProt Q8BRU4); test: flow cytometry on cells; red fluorescent streptavidin beads, uncoated or coated with F-actin or F-actin and myosin II, with GFP-expressing MutuDC1940 cells for 2 hr at 37°C; with isotype control or anti-DNGR-1 antibody 1F6

NFAT β-galactosidase reporter activity of B3Z-mDNGR-1-Syk cells, titration of an equimolar mixture of F-actin and myosin II against F-actin alone [1]: 2 log
Substance: F-actin and myosin II complexes (from UniProt P68135 1-377; Q28641 1-1938; P02602 1-192; P02608 1-170)

percent of MutuDCs associated with beads [2]: < 50%
Substance: beads coated with biotinylated F-actin and myosin II (from UniProt P68135 1-377; Q28641 1-1938; P02602 1-192; P02608 1-170) (complex)

NFAT β-galactosidase reporter activity of B3Z-mDNGR-1-Syk cells, titration of in vitro polymerized F-actin [1]: > 1 µM
Substance: in vitro polymerized F-actin (from UniProt P68135 1-377) (natural protein)

Source: article PMC6057488
